± gives the uncertainty stated by the source.
assay: protein stability index of a GFP-peptide fusion (yeast GPS) (PSI 1-4); higher = more stable; sorted into four equal gates, so the index is relative within each strain; conditions: san1∆
In short: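 Mid-log yeast cultures in leucine-free medium, carrying a pooled plasmid library, were sorted into four equal gates by their GFP/Cherry fluorescence ratio. Each plasmid expressed Cherry along with GFP fused upstream of a tiled 17-residue yeast protein peptide. Plasmids recovered from each gate were PCR-amplified and Illumina-sequenced, with reads assigned to strains by barcodes. The protein stability index was obtained by summing each gate's read frequency weighted by its gate number.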

Row | Sequence | protein stability index
1 | SVFMPLIFIACNDEDKD [ECM29] | 2.09 ± 0.079
2 | SVFYTILRDYGPQEAAN [RPO31] | 3.27 ± 0.071
3 | SVLLHHKTMSIVGVLQD [RPT2] | 1.37 ± 0.096
4 | SVLYQLSTSAFMEIVLE [YML031W/NDC1] | 2.07 ± 0.068

same assay, conditions: ubr1∆

Row | Sequence | protein stability index
5 | SKLSQEFLYPHLNFPNV [SNF12] | 3.02 ± 0.065
6 | SKMLDAASSQVSIVKLD [SNF12] | 2.95 ± 0.091
7 | SKPESSVLQLIVSEDHI [MED1] | 2.7 ± 0.092
8 | SKQDASPKPYAVKYGLN [RPL8A] | 3.14 ± 0.095
9 | SKQDVEALIEFIYDTEK [FAS2] | 3.08 ± 0.073
10 | SKSEFAHRIMLTNILRM [FAS2] | 1.85 ± 0.081
11 | SKYGMLLLRCDDRVDKK [POP3] | 3.09 ± 0.077
12 | SLAATYSMISLQNCCII [ARP9] | 1.26 ± 0.041
13 | SLDMNSMNKELIAIVSK [NUT1] | 1.19 ± 0.088
14 | SLDRVAWRTLVGVSHTN [CYT1] | 1.25 ± 0.043
15 | SLENNIREFPEYFAAQA [RPL10] | 2.52 ± 0.062
16 | SLGFLQQSNKLHCCIQL [RPN3] | 2.14 ± 0.058
17 | SLHNTEKIMENKYPELL [AAR2] | 2.86 ± 0.034
18 | SLIENKKAKLVLIANDV [RPL8B] | 2.35 ± 0.14
19 | SLKNDLPQFRSSIQESL [ECM29] | 3.07 ± 0.087
20 | SLLLTNVIITGSTSLIE [ARP7] | 1.39 ± 0.028
21 | SLNNSDSLISGVKQKIT [BRR2] | 2.31 ± 0.049
22 | SLPEELKKRYDLSYNFN [YMR129W/POM152] | 2.94 ± 0.091
23 | SLPHFPKNSKTPQSKGF [RPO31] | 2.98 ± 0.21
24 | SLQEDVSFDFNGVPGQA [MED8] | 3 ± 0.053
25 | SLQSCSVAVHFQYVIDE [SMC4] | 1.54 ± 0.048
26 | SLRSNVVVAETSPEKKD [YAR002W/NUP60] | 2.4 ± 0.061
27 | SLSAYNLTDEGYQWGEE [PRP8] | 3.33 ± 0.19
28 | SLSEFARRRQPTDQNNQ [SNF2] | 2.87 ± 0.1

Row | Sequence | protein stability index
29 | SLSIEENIPVALCKNRK [POP1] | 2.95 ± 0.1
30 | SLTLSFIRHVAKLNYKN [ECM29] | 2.92 ± 0.048
31 | SLVEVVFYRGMTMQVAV [FAS1] | 1.99 ± 0.12
32 | SMERKVQGAAPWDTSLE [MCD1] | 3.44 ± 0.16
33 | SMGSILLSFVLGVVFGR [YML031W/NDC1] | 2.64 ± 0.059
34 | SMKYDNGVIIAADNLGS [PRE4] | 3.06 ± 0.11
35 | SMMSDGIEHFDIPPPAI [RPO31] | 2.06 ± 0.15
36 | SMQTIAETIILSSAGKN [SRB5] | 1.9 ± 0.029
37 | SMVLFFVCLSCSHIFTS [RPB9] | 1.67 ± 0.095
38 | SNEAAKPSFSFPGKPVD [YOR098C/NUP1] | 2.95 ± 0.047
39 | SNFADSADYEILYEIRA [YDL116W/NUP84] | 1.71 ± 0.099
40 | SNGEVLEVGKNNFCALY [RPN14] | 2.05 ± 0.036
41 | SNGPRAAKKRRPAAKGK [RRP6] | 3.17 ± 0.085
42 | SNGSGIVAAGGGSGAAT [CSL4] | 3.48 ± 0.11
43 | SNGVLNVDNQTSDLVKS [RPS17A] | 2.86 ± 0.075
44 | SNIGNNSINNNNIKNGT [YDL088C/ASM4] | 2.65 ± 0.042
45 | SNIPTLIEKLQGFSKDT [YDL116W/NUP84] | 3.17 ± 0.073
46 | SNLEKLLFINSSKLVDV [YML103C/NUP188] | 2.62 ± 0.082
47 | SNMLGSNEDVMMTGAEQ [RPB3] | 3.08 ± 0.089
48 | SNNQVIKMQRQFSQLND [MED6] | 3.18 ± 0.06
49 | SNNSTTNTFGSNSAGTS [YJL041W/NSP1] | 3.05 ± 0.18
50 | SNSALFRAVGEGNAQLV [FAS1] | 1.94 ± 0.09
51 | SNSANVSSPESEKNKRQ [ITC1] | 3.09 ± 0.033
52 | SNSNVTNPSSIFGGAGG [YOR098C/NUP1] | 2.87 ± 0.045

Row | Sequence | protein stability index
53 | SNTDETKGENYQLVKTL [FAS2] | 3.25 ± 0.084
54 | SNVYLSLVNSYIIDSPQ [COB] | 1.71 ± 0.052
55 | SPDKIGTFTADYSKPNL [SSN2] | 2.92 ± 0.064
56 | SPELSLQRHLSLGIRPC [RRP43] | 3.06 ± 0.048
57 | SPMLSISNLTQEQVQDY [FAS1] | 3.09 ± 0.044
58 | SPQLTAIIGLKSGTSHD [SNF12] | 1.66 ± 0.065
59 | SPSPILLTSAGCKNGSF [NUT1] | 2.41 ± 0.073
60 | SPTENGVFDPASYSKYL [RPL22B] | 2.87 ± 0.06
61 | SPVQDWNLLRSLYIFFT [YML103C/NUP188] | 1.95 ± 0.042
62 | SPVTGDNSPSEDFMDIP [SNF2] | 3.42 ± 0.058
63 | SQIIARNEEILRDIGEC [SMC2] | 3.07 ± 0.084
64 | SQPFIKFLNFRPPNGIK [SSN2] | 2.4 ± 0.039
65 | SQSACREMALCRELHNK [SSN3] | 2.8 ± 0.067
66 | SQTQLENANAANNGAAF [MED2] | 1.74 ± 0.032
67 | SQVVETHKVTDIYSHEY [YMR129W/POM152] | 2.83 ± 0.15
68 | SRGINKGHKFNNTKAGR [RPL15A] | 3.4 ± 0.17
69 | SRILKAQSRNVEIEKRI [YGR119C/NUP57] | 2.67 ± 0.053
70 | SRKQKIAKTFTVDVSSP [RPL22A] | 2.68 ± 0.05
71 | SRPGQSGRCDGYILEGE [RPS8A] | 3.38 ± 0.049
72 | SRPLKKVKILEQIDENW [SWI3] | 2.99 ± 0.044
73 | SRTDAVRCKDCGHRILL [RPC10] | 3.02 ± 0.078
74 | SRTRAHAQSKREGRHSG [RPL19A] | 2.99 ± 0.037
75 | SSAAILGLGIAFAGSKN [RPN1] | 1.34 ± 0.092
76 | SSDALSKEKANFLETIA [SIR4] | 1.52 ± 0.048

Row | Sequence | protein stability index
77 | SSHLSDNDFIINDFKKI [POP5] | 2.74 ± 0.036
78 | SSKAATPDTKNFFHAKK [SNF12] | 2.93 ± 0.047
79 | SSNASFNNQGKLDLFKY [MED1] | 3.04 ± 0.041
80 | SSNCHVRQKIKTLKRMI [POP1] | 2.01 ± 0.045
81 | SSNIAGTNPLSSDGAYT [SSN2] | 3.33 ± 0.12
82 | SSRTKFWSFLDSLIFKD [YJL039C/NUP192] | 2.72 ± 0.12
83 | SSSANKLLQLFLTPMDS [YML103C/NUP188] | 1.41 ± 0.042
84 | SSTDEESWFKALAGSEI [FAS1] | 3.3 ± 0.081
85 | SSTGNANTSNNLFGATA [YJL041W/NSP1] | 3.29 ± 0.056
86 | SSVKCFGPIKVELPTKE [FAS1] | 1.97 ± 0.057
87 | SSWQIYSDENDPSISNN [RRP4] | 3.33 ± 0.14
88 | STGPTGAVSLNPSITRL [RRP4] | 3.06 ± 0.05
89 | STKFDYPPMPFDGFLFG [FAS1] | 2.68 ± 0.037
90 | STKLSRPFDSFGKLLQA [ITC1] | 2.03 ± 0.063
91 | STKSNKAKNPLTHSTPK [RPL8B] | 2.73 ± 0.071
92 | STQELQTRAKLLDNEIR [RPT5] | 2.98 ± 0.044
93 | STQPSFAWSKPSTGSNL [YGR119C/NUP57] | 2.98 ± 0.038
94 | STSVGWKYEDVVAKLED [RPL16B] | 3.33 ± 0.075
95 | STTFADCPVVPADPDIL [RPC40] | 2.43 ± 0.094
96 | STVKVSDLNLTDRQKKL [YLR018C/POM34] | 2.76 ± 0.037
97 | SVFMPLIFIACNDEDKD [ECM29] | 2.55 ± 0.04
98 | SVFYTILRDYGPQEAAN [RPO31] | 2.88 ± 0.069
99 | SVLLHHKTMSIVGVLQD [RPT2] | 1.57 ± 0.042
100 | SVLYQLSTSAFMEIVLE [YML031W/NDC1] | 2.67 ± 0.058

Source: the supplement of paper PMC9732359
